Results reported in the DeepSol protein solubility set.

assay: soluble on expression in E. coli; label from the status in PepcDB or PDB records

**Q.** For “MRIDILTLFPGMFSGVLNESILKKAQEKGAVDIRLIDFREFADNKHKTVDDYPYGGGAGMVLKPQPIFDAVEHVTAGSPGARIILLCPQGERYTQKKAEELAKETHLVLICGHYEGYDERIRQYLATDEISIGDYILTGGELGAMVIVDSVVRLLPGVLGNEASPVDDSFSSGLLEYPQYTRPADFRGMKVPDILLSGNHQLIAEWREKESLRRTFLRRPDLLDEYPLTDKQKQWLKEWEKERE”, which “soluble on expression in E. coli” value is on record?
**A.** not soluble

**Q.** With “KKVCACPKILKPVCGSDGRTYANSCIARCNGVSIKSEGSCPTGI” as the sequence, how does the “soluble on expression in E. coli” value read?
**A.** soluble

**Q.** For “MSLKSALRLYNRASFKASHKVIEEYSTSFSLSTWLLSPRIRNDIRNLYAVVRIADEIVDGTAHAAGCSTAKIEEILDAYEIAVLAAPQQRFNTDLVLQAYGETARRCDFEQEHVIAFFASMRKDLKANTHDPDSFTTYVYGSAEVIGLLCLSVFNQGRTISKKRLEIMQNGARSLGAAFQKINFLRDLAEDQQNLGRFYFPKTSQGTLTKEQKEDLIADIRQDLAIAHDAFPEIPVQARIGVISAYLLFQKLTDRIEATPTADLLRERIRVPLHIKLSTLARATMKGLSMSIYRKNSEGHHHHHH”, which “soluble on expression in E. coli” value is on record?
**A.** soluble

**Q.** Which “soluble on expression in E. coli” value does the source give for “TSMIIHRDLEVAIRQDNIIPYFQPIVNAKSGEIIGFEALARWPHPTLGIISPLIFIPLAEQGKLIVELGESILNQSCDFIGKLNTKRHSQGLPPLTVHVNLSAQHFYHSRLISFLQSMIEEHNISAGHLVLEITESMLMGGETESIHCINEIKQLGVQLALDDFGTGYASFSSVCNFPLDIVKLDKSYVDEIETNDRAKTLVRNIANMSQELGLTIVAEGVETASQVRKLKVWNIDELQGFYFYKPMTREDAFAQFSGLPHC” here?
**A.** not soluble

**Q.** For “MGSDKIHHHHHHMQRIAENYDALPRQLKNVATYIEQHRSSVMVDRTSDIAASCGVHPSAVVRFAQRFGFSGFSDLQAVFRQAYTGQGSSSPSYQQRIRKLIDEKPGALSGGSVAREFIAASRGGLEELEAGLDDKQFDAAVKMLQQADNIYVIGVRRSFPVASYIVYALQHTPKRVHLVSGFGGMYREQIRSVKKGDVVIAISFAPYGKETQYCLRVAHHHQARTLVITDSQLSPLARYATTQLYVKEGSAFAFRSLTSTICLCQALFIALAYKLELNVEESKDTGGYDD”, which “soluble on expression in E. coli” value is on record?
**A.** not soluble

**Q.** For “MGSDKIHHHHHHMINTDHPIRIAIAGLGFGESVHIPASLSNKNIELVGLWHPRPERLKEACNKHNLRAYETWEDLVNDSKVDGIIIATPPAPRYELALEAIKGGKHLLLEKPTCLNAYEVMELQRNALKRNLKIAVDYEYRAVPLFMQAKRIITEKKLDEPYFVKLDWLMSSRANPDRPWNWYSDENSGGGVLGALGTHAFDMIHWLIGPTHSLSAINSTSIEERECPQSKTIKKVTSEDVSISQLQIKSINNNLIPAQVNLSAVTKQSRGFSLEIYGSNGTLVLSSENQNDYVHGFGLWYSNKGDVLKNIQPDSDLSFSKIWTDGRIAPVARIQNWWAQSIADGTPVIPGLVEGLASQIVCDKVKESNSIGMKIEIN”, which “soluble on expression in E. coli” value is on record?
**A.** not soluble

**Q.** With “MATEVTFFDELKIDNKVDIIGNNVRGELPNIWLQYGQFKLKASGGDGTYSWYSENTSIATVDASGKVTLNGKGSVVIKATSGDKQTVSYTIKAPSYMIKVDKQAYYADAMSICKNLLPSTQTVLSDIYDSWGAANKYSHYSSMNSITAWIKQTSSEQRSGVSSTYNLITQNPLPGVNVNTPNVYAVCVE” as the sequence, how does the “soluble on expression in E. coli” value read?
**A.** soluble

**Q.** With “MGSDKIHHHHHHMEVAMEKIYYPRTIDSYLLEWKNERAHKPLLLRGARQVGKSSAVRQLGKTFKYFMEVNFERDKEIISVFTGNLKPKEITSRLAAFYGIPVVPGETLLFLDEIQACTPAIHSLWFFYEDYPELHVVAAGSLLEFALKKMAFFGVGRVRSLFMYPMSFDEFLAATGHAGWIEAKRNASPAEPLFEALHGKLVESFRNYLMVGGMPESVQNWVETEDYLKCQQVQDDIMLAYEDDFSKYEEKADPMLLRQTLRSVAQQIGGKFVYSNVQGNYRSEKIKSALELLKDAGLVRPAVHTAANGIPLGAEINEKFVKYIFLDSGLLLRLLGLENTGGTSEMSRLVLVGAASDLVNKGHITEMVAGLELLKYNTPVQRHDLYYWQNLSRGAQAEVDYVIVKDMRVVPLEVKAGTTGSMKSMYQFMEEKHLTYGIRTSLENFGKLEKADIIPLYALSNLYK” as the sequence, how does the “soluble on expression in E. coli” value read?
**A.** not soluble

**Q.** Which “soluble on expression in E. coli” value does the source give for “MAHHHHHHMLRHFQRDVRGGSSSRRKLPRSVVGERSEEGSGTSKDPFVLSLREIPNRSGCYHCVEDCCECLWITELLAVCYGSLPTRRQVMTYRKRERCAKSILPPFVARIVRVAKISSQDTFYDLGCGNGSVLFQVALLTGARCVGVEINERNATVAQDAWRRLRPMIEARRGEPVEVEIICADFCSLMRDEKFFGSSPVIWAANLLMPGPVNHYLSERFRLLPKGSRVLCLEDLYPHGRSVAKFRDPDAFEMFAMTDFKWQTKSVEWCDTEGPFSMYTKRT” here?
**A.** not soluble

**Q.** With “MATKTKTTEAPVLPLNQILAGDCIETMRSLPECSVDLIFADPPYNLQLRGDLHRPDNSRVDAVDDHWDQFSSFSVYDQFTREWLAAARRLLKPNGAIWVIGSYHNIFRVGAALQDQGFWILNDVVWRKSNPMPNFKGKRLTNAHETLIWASKQEASKYTFNYEALKALNEGVQMRSDWVIPICTGHERLKDEQGDKAHPTQKPEALLHRVMVATTNPGDVVLDPFFGTGTTGAVAKMLGRDFIGIEREESYRRIAAERLSRVRRYDASALEVSGSKRAEPRVPFGQLVERGMLRPGEELYSMNNRHKAKVRADGTLIGNDVKGSIHQVGAALEGAPSCNGWTYWCYKREGKMIPIDILRQQIRAEMEDPRPN” as the sequence, how does the “soluble on expression in E. coli” value read?
**A.** not soluble

**Q.** Which “soluble on expression in E. coli” value does the source give for “MDSLPTSATNGPAGLSAEADAEPHARLTFDLDVDLCVIGAGLAGLSVALEAAQAGLSVAVLESGRIGWGASGHNLGSVTPGYGVPIGDLIARVGLDHASALWALTREGMEIVRARATEEAMPGVALSDGALEVSNVDIGDRLVERLQTLGVDFGSEVEGWPIDKVRDVLRTNRYFHGIHYPTAFQLDGRRYLRGLERLARQAGARIFEETPAVSIDFAGIRKRISTPNARLRASDIVLAGSVHLGAPSPRVAETLLPVWRTAALTAPLGEQLPDAIAFAGSIADTDGVDHYRIVGGDRLLWASGETTFDVAPQRLAGIIRRRIAAVFPQLGQVEIAQTFSAAVGMTVHGMPQVGELRPGLWVASGFGRQGLATTAIAGRLIARGLTHSDERWKLFSPFDLVWAGGTIGRIVGQGVYFATREGALAAGALARYRERAAARTRVRDARAEVKQEERRARVALLRAAEAANVPPPNAPSRRPVPPPSPELEHHHHHH” here?
**A.** not soluble

**Q.** For “MSLKKDIIILGIESSCDDTSAAVVRNETMLSNVIAGQAVHKAYGGVVPELASRAHQQNIVPVVSEAIKRAGIRKEEIDAIAFTRGPGLLGSLLVGTSFAKGLSLSLGIPMLEVNHLHAHVLANFLREPGEESQHPSFPFLCLLVSGGNSQIILVRSPYDMEVIGQTIDDAAGEAFDKCAKVMGLGYPGGPIVNKLASEGNPDAFRFARPHVSGYDYSFSGLKTSFLYTLRDKLAEDPDFIEKNKADLCASLQHTVIDILMKKLRQAAKDHSIKQVALAGGVSANTGLRDAFHDHARRYGWTVFIPKFAYTTDNAAMVAISGYYKYLQGDFCPIDAVPFSRITVEGHHHHHH”, which “soluble on expression in E. coli” value is on record?
**A.** soluble

**Q.** For “MTKSQQKVSSIEKLSNQEGIISALAFDQRGALKRMMAEHQSETPTVEQIEQLKVLVSEELTQYASSILLDPEYGLPASDARNNDCGLLLAYEKTGYDVNAKGRLPDCLVEWSAKRLKEQGANAVKFLLYYDVDDTEEINIQKKAYIERIGSECVAEDIPFFLEVLTYDDNIPDNKSAEFAKVKPRKVNEAMKLFSEDCFNVDVLKVEVPVNMNFVEGFSEGEVVYTKEEAAQHFRDQDAATHLPYIYLSAGVSAELFQDTLKFAHDSGAQFNGVLCGRATWSGAVKVYIEEGEQAAREWLRTVGFKNIDDLNTVLKTTATSWKNK”, which “soluble on expression in E. coli” value is on record?
**A.** soluble

**Q.** With “MIDNPTPKSSMTFKELYDEWLLVYEKEVQNSTYYKTTRAFEKHVLPVIGSTKLSDFTPMELQNFRNDLSEKLKFARKLFGMVRKVFNHAALLSYIQANPALPVTSQGIKKKVEELEHHHHHH” as the sequence, how does the “soluble on expression in E. coli” value read?
**A.** soluble

**Q.** For “MVLLSVFLATGCTDTEQQPDTTTITEPDTTTTAQSETSKLIVSTTTSLEDTGLLEEIEAAFEDKYPGVDVLVISGGTGIAIQYGERGDADILLTHDKSREEEFVNNGFGTNRTEIAYNYFWIVGPENDPAGINGLNATEAFTRIMEEGQNDSDQVKFASRGDDSGTHAREKKIWESTGVSYGEINSSGEWYIESGRGMGETLLLSNEQNAYTLTDSGTFLAYTNEGRIQIVPIVTAGDELLNVYAAMPVNPEKHPNVNYEGAQNFVDFLVSSEGQEIIGNFGREQYGEPLFTPISEGLPS”, which “soluble on expression in E. coli” value is on record?
**A.** not soluble

**Q.** With “PLENQELTPLFGQPDWFLGILPSQAGNLKVLDTARWVMPERYRDDYRDGLKYVISVQGYEWGLAVHQVSRSIRLDPAEVKWRSQRSQRPWLAGTVIEH” as the sequence, how does the “soluble on expression in E. coli” value read?
**A.** not soluble

**Q.** For “GKLDATLRAIVHTAAELVDARYGALGVRGYDHRLVEFVYEGIDEETRHLIGSLPEGRGVLGALIEEPKPIRLDDISRHPASVGFPLHHPPMRTFLGVPVRIRDEVFGNLYLTEKADGQPFSDDDEVLVQALAAAAGIAVDNARLFEESR”, which “soluble on expression in E. coli” value is on record?
**A.** soluble

**Q.** With “MSNSHHTSMRGNDMSDNIRVGLIGYGYASKTFHAPLIAGTPGLELAVISSSDETKVKADWPTVTVVSEPKHLFNDPNIDLIVIPTPNDTHFPLAKAALEAGKHVVVDKPFTVTLSQARELDALAKSLGRVLSVFHNRRWDSDFLTLKGLLAEGVLGEVAYFESHFDRFRPQVRDRWREQGGPGSGIWYDLAPHLLDQAITLFGLPVSMTVDLAQLRPGAQSTDYFHAILSYPQRRVILHGTMLAAAESARYIVHGSRGSYVKYGLDPQEERLKNGERLPQEDWGYDMRDGVLTRVEGEERVEETLLTVPGNYPAYYAAIRDALNGDGENPVPASQAIQVMELIELGIESAKHRATLCLA” as the sequence, how does the “soluble on expression in E. coli” value read?
**A.** soluble

**Q.** Which “soluble on expression in E. coli” value does the source give for “GPGSMITDSHIMRLVTDGRMEMFPAVPPPSADGNGVVMLSCYQRGPLLPPTPPRPSSGRNDRIMWDSWQTRPVPQYRGNPETKTQRGVADWQHVPFACPFLRPVVTDVDRAVRGGNATRWLPTPFVGPQVFTVKDKSAGGVLVEQKEAPSSSTS” here?
**A.** not soluble

**Q.** For “MSTTGRIHSFESCGTVDGPGIRFIVFLQGCLMRCKYCHNRDTWDTHDGKEVTVEEIIAEAKSYRHFMNASGGGITCSGGEAMLQPEFVRDFFRAAHAEGIHTCLDTNGYIRKHTEVIDEVLDATDLVMLDIKHMKDEIHQDFIGVSNRRTLDFARYLHKIGQKTWIRYVVVPGYTDDPEAAHMLGEFIKDMDNIEKVELLPYHKLGAHKWEALGLEYPLEGVNPPSKETMDEIQSILSQYHSNVKYLEHHHHHH”, which “soluble on expression in E. coli” value is on record?
**A.** not soluble

**Q.** With “MPKYYCDYCDTFLTHDSPSVRKTHNGGRKHKDNVRMFYQKWMEDQAQKLVDQTARAFATNRMQGAVPRTTMGMAPVPPVGHHPMMGGPPGMPMMAPRPFPGPGVGFPGAPGMPPFPGGPMGMAGPPGMPPMMPRPPQQFRPM” as the sequence, how does the “soluble on expression in E. coli” value read?
**A.** not soluble

**Q.** With “MGSDKIHHHHHHMRTNKVVWSEGLFLRPQLFQQQERYLEYYAHKRAATITPFFWGFAQYEIDREALSYGKLVLRSGKGVLPDGTPFDIPGHAELPEPLTITPDHLGKLIYLAVPLRLDNSDETIFDEYDMSSLARFYAYEADLSDTNAIRQGPKPVQLSRLRLKLVSESEMTESWIGLPLAKVRAIQPDGSVLLHLEDYIPPVTGYAASSLLSEWLTHLNGLVKMRADMLAKRLSNSDGKASASAEIVDYLLLQIFNKYEPSLDHLRNIPELPPIVLYQELAKFAGELSTFIRTKTRRPRPAPGYDHGKLYPSIRPLVDDVHELLNQILVRAGQMIPLEPKGNGVWSASVLPNELRSFSNLVLAVHAQLPMDVLQHQFSVQTKISAPQQLHELVRSHLPGLELQRLPVPPRQIPYSAGYVYFELMKSGPFWDKVSNAGAIALHVAGDFPALKMELWGIRDS” as the sequence, how does the “soluble on expression in E. coli” value read?
**A.** not soluble

**Q.** With “MEWFGIGAGTLRQGDRADFAVIDPTHLDESVDGYHEEAVPYYGGLRRMVNRNDATVVATGVGGTVVFRGGQFGGQFRLEHHHHHH” as the sequence, how does the “soluble on expression in E. coli” value read?
**A.** not soluble
